{"source": "patent US20070225240A1", "about": "“Screening Assay and Treatment” (priority 2003, published 2007)", "molecules": {"B1": {"name": "V5-tagged recombinant ASPP1 fragment (1-308) (protein, not shown: small tags and cut ends)", "chain": "MMPMILTVFLSNNEQILTEVPITPETTCRDVVEFCKEPGEGSCHLAEVWRGNERPIPFDHMMYEHLQIWGPRREEVKFFLRHEDSPTENSEQGGRQTQEQRTQRNVINVPGDKRTEYGVGNPRVELTLSELQDMAARQQQQIENQQQMLVAKEQRLHFLKQQERRQQQSISENEKLQKLKERVEAQENKLKKIRAMRGQVDYSKIMNGNLSAEIERFSAMFQEKKQEVQTAILRVDQLSQQLEDLKKGKLNGFQSYNGKLTGPAAVELKRLYQELQIRNQLNQEQNSKLQQQKELLNKRNMEVAMMDK"}, "B2": {"name": "ASPP1 fragment (1-308): V5-tagged recombinant ASPP1 fragment (1-308) containing the Ras-association domain (protein)", "chain": "B1 chain", "modifications": "left off: small tags and cut ends", "notes": "V5-tagged recombinant ASPP1 fragment (1-308) containing the Ras-association domain"}}, "key": {"[1]": {"molecular_target": "full length ASPP2, V5-tagged (transfected) (Homo sapiens (Human)) (UniProt Q13625)", "test": "cell-based or functional assay"}, "[2]": {"molecular_target": "full length ASPP2, V5-tagged (transfected) (Homo sapiens (Human)) (UniProt Q13625)", "test": "cell-based or functional assay", "remark": "listed apart in the source"}, "[3]": {"molecular_target": "T1, full length ASPP1, V5-tagged (transfected) (Homo sapiens (Human)) (UniProt Q96KQ4)", "T1 sequence": "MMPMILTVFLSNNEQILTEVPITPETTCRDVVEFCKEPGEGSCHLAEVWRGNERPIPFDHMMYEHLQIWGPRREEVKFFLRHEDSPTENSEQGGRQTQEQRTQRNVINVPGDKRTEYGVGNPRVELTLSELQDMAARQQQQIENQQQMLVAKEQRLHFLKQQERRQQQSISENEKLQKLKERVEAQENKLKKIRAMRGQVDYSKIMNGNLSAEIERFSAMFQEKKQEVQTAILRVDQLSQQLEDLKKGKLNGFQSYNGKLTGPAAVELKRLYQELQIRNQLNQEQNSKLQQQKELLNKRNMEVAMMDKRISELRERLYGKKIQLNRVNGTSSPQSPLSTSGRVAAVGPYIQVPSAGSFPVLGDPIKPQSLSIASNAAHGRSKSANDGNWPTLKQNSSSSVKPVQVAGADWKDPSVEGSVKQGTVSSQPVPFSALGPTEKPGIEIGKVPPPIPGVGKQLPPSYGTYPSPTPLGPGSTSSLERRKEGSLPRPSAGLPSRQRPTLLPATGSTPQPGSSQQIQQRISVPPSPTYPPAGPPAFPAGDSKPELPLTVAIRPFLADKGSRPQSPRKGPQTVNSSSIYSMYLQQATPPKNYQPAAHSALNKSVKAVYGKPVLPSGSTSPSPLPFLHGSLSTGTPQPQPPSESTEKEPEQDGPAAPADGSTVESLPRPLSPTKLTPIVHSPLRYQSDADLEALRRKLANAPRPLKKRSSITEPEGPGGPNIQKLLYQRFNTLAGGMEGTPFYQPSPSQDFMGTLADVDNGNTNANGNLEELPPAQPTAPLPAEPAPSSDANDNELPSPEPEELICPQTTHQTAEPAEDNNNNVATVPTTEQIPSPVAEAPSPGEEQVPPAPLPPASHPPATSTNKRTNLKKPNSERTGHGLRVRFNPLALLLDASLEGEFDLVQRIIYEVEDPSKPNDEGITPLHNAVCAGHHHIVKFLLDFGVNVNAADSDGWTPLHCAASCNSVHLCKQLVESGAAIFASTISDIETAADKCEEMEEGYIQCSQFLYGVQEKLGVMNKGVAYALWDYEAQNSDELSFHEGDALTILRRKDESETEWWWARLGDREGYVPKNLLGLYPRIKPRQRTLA", "test": "cell-based or functional assay"}, "[4]": {"system": "T2, GST-ASPP2 (693-1128), non-phosphorylated", "T2 sequence": "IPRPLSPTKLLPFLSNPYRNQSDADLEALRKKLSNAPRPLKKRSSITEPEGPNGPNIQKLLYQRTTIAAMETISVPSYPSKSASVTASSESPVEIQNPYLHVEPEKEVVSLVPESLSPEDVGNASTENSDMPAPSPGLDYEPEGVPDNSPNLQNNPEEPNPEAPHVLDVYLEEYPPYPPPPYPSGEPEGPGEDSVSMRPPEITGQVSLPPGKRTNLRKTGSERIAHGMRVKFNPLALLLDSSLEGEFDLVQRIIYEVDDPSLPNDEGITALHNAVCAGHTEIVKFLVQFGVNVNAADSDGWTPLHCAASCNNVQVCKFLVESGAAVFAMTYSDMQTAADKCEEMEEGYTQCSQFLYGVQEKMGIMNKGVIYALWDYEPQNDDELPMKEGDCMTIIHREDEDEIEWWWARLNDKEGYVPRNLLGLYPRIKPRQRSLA"}, "[5]": {"molecular_target": "purified recombinant Ras loaded with GTP", "test": "in vitro immunoprecipitation of purified proteins with V5 antibody, intensity of the ras bands (FIG. 14C-D)"}, "[6]": {"molecular_target": "purified recombinant Ras loaded with GTP", "test": "in vitro immunoprecipitation with V5 antibody, intensity of the Ras bands (FIG. 23B)"}, "Ras": {"system": "Ras", "test": "In vitro immunoprecipitation of GDP/GTP-loaded Ras with ASPP1 fragment", "format": "binding", "settings": "purified recombinant proteins, V5 immunoprecipitation, band intensity", "source_text": "FIG. 14 illustrates that purified N-term ASPP1 binds directly in a preferential manner to Ras.GTP. A. Purified ras was loaded with tritium labelled -GDP, -GTP or not loaded as a control. The cpm counts of the tritium are shown. The differences in cpm is due to the fact that GDP and GTP were not tritium-labelled at the same level. B. Relative loading of ras-GDP and ras-GTP, showing the mol of nucleotide bound to ras. Both ras-GDP and ras-GTP were loaded with an equal amount of nucleotide. C. Loaded ras-GDP and ras-GTP with or without purified N-terminus ASPP1 was immunoprecipitated with a V5 antibody against the ASPP1 fragment. The immunoprecipitations were western blotted against ras to see whether there was direct and preferential binding of ras-GDP and ras-GTP to the amino-terminus of ASPP1. D. The intensity of the ras-GDP and ras-GTP bands pulled down by N-term ASPP1 were measured and shown as a graph. N-terminus ASPP1 binds ras-GTP four fold more strongly than it does to ras-GDP;\nFIG. 23. Amino-terminus ASPP1 and ASPP2 preferentially bind activated Ras in vitro and in vivo. (A) Sequence homology between the amino-termini of ASPP1 and ASPP2 and the Ras-association domains (RAD) of RGL2 and AF-6. (B) The Ras protein loaded with either tritium-labelled GDP or GTP, was added to V5-tagged recombinant ASPP1 fragment (1-308) and immunoprecipitated with V5 antibody. As a negative control Ras-GDP and Ras-GTP were immunoprecipitated with V5 antibody in the absence of the ASPP1 fragment. The ASPP1 fragment preferentially bound Ras-GTP to Ras-GDP. The intensity of the bands representing immunoprecipitated Ras was quantified and the values shown as a bar graph in the right panel. […] The ASPP proteins were detected with mAbASPP1.54.1 that is known to cross-react with both ASPP1 and ASPP2. […]\n2.5 μg of recombinant protein purified from Escherichia coli was incubated in a total volume of 320 μl assay buffer containing 2 μCi [3H] […] An aliquot of each sample had its tritium content measured to check the equal loading of GDP and GTP. […]"}}, "note": "Like-named read-outs stand apart in the source and are kept apart here.", "data": [{"molecule": "oncogenic H-RasV12, haemagglutinin-tagged (from UniProt P01112 1-186)", "values": [{"measurement": "transactivation function of p53 (bax-luciferase reporter, Saos2 cells)", "setting": "[1]", "result": 3, "unit": "fold"}, {"measurement": "transactivation function of p53 (bax-luciferase reporter, Saos2 cells)", "setting": "[2]", "result": 2.5, "unit": "fold"}, {"measurement": "transactivation function of p53 (bax-luciferase reporter, Saos2 cells)", "setting": "[3]", "result": 2.5, "unit": "fold"}]}, {"molecule": "p38SAPK", "values": [{"measurement": "in vitro phosphorylation (P32 incorporation)", "setting": "[4]", "result": "MAPK1, PKA, p38SAPK and p90rsk were all found to be able to phosphorylate ASPP2"}]}, {"molecule": "recombinant MAPK1", "values": [{"measurement": "in vitro phosphorylation (P32 incorporation)", "setting": "[4]", "result": "MAPK1, PKA, p38SAPK and p90rsk were all found to be able to phosphorylate ASPP2"}, {"measurement": "in vitro phosphorylation assay with 32P-labelled ATP", "setting": "[4]", "result": "When compared to p38 SAPK, MAPK1 was clearly able to phosphorylate the ASPP2 fragment in vitro"}]}, {"molecule": "p90rsk", "values": [{"measurement": "in vitro phosphorylation (P32 incorporation)", "setting": "[4]", "result": "MAPK1, PKA, p38SAPK and p90rsk were all found to be able to phosphorylate ASPP2"}]}, {"molecule": "oncogenic K-RasV12, haemagglutinin-tagged (from UniProt P79800 1-185)", "values": [{"measurement": "transactivation function of p53 (bax-luciferase reporter, Saos2 cells)", "setting": "[2]", "result": 2.5, "unit": "fold"}, {"measurement": "transactivation function of p53 (bax-luciferase reporter, Saos2 cells)", "setting": "[3]", "result": 2.5, "unit": "fold"}]}, {"molecule": "PKA", "values": [{"measurement": "in vitro phosphorylation (P32 incorporation)", "setting": "[4]", "result": "MAPK1, PKA, p38SAPK and p90rsk were all found to be able to phosphorylate ASPP2"}]}, {"molecule": "B1", "values": [{"measurement": "fold binding to ras-GTP over ras-GDP", "setting": "[5]", "result": 4, "unit": "fold"}, {"measurement": "fold affinity for Ras-GTP over Ras-GDP", "setting": "[6]", "result": 4, "unit": "fold"}]}, {"molecule": "B2", "values": [{"measurement": "binding of Ras-GTP relative to Ras-GDP", "setting": "Ras", "result": 4, "unit": "fold"}, {"measurement": "binding of Ras-GTP relative to Ras-GDP", "setting": "Ras; listed as N-terminus ASPP1", "result": "four fold"}, {"measurement": "binding of Ras-GTP relative to Ras-GDP", "setting": "Ras; listed as N-terminus of ASPP1", "result": "four-fold"}]}]}
